B1: CPEB3 Ribozyme (parent)
chain: GGGGGCCACAGCAGAAGCGUUCACGUCGCGGCCCCUGUCAGAUUCUGGUGAAUCUGCGAAUUCUGCUGU

Variants of: B1
Assay: self-cleavage, relative activity (ratio to wild type); higher = more cleavage; co-transcriptional
In the case of U49G G68U, the self-cleavage is reported as 1.01. Variant G50U A59U has a self-cleavage of 0.834. In the case of G50U A59G, the self-cleavage is reported as 1.04. A51G A52C showed a self-cleavage of 0.94. In the case of A51G A52U, the self-cleavage is reported as 0.902. U49G C66U showed a self-cleavage of 0.98. Variant U49G C66G has a self-cleavage of 0.908. Work on A51U A60U yielded a self-cleavage of 0.438. Work on A51U A60C yielded a self-cleavage of 0.378. A51U A60G showed a self-cleavage of 0.891. For G50A G68C, the self-cleavage was 1.02. In the case of G50A G68U, the self-cleavage is reported as 1.02. G50U U55C showed a self-cleavage of 0.766. A51C showed a self-cleavage of 0.989. In the case of A51G, the self-cleavage is reported as 0.994. With A51U the self-cleavage was 0.994. For G50U G56U, the self-cleavage was 0.91. Work on G50U G56A yielded a self-cleavage of 0.928. Variant A52G G65A has a self-cleavage of 0.945. For A52G U62C, the self-cleavage was 0.915. Variant A52G U62A has a self-cleavage of 0.871. A52G U62G gave a self-cleavage of 0.963. With A52G G68A the self-cleavage was 1.01. Variant A52G G68C has a self-cleavage of 0.975. For G50C A51U, the self-cleavage was 0.942. With A51U U55C the self-cleavage was 0.561. In the case of A51U U55A, the self-cleavage is reported as 0.696. Variant G50U A52C has a self-cleavage of 0.979. Variant G50U A52U has a self-cleavage of 0.94. For G50C C63G, the self-cleavage was 0.738. Variant G50C C63U has a self-cleavage of 0.97. G50C C63A gave a self-cleavage of 0.813. Work on A52C C54A yielded a self-cleavage of 0.615. Variant A52C C54U has a self-cleavage of 0.856. A52C C54G gave a self-cleavage of 0.562. Work on G50U U62A yielded a self-cleavage of 0.989. Variant G50U U62G has a self-cleavage of 0.977. Variant G50U C54A has a self-cleavage of 0.858. With G50U C54U the self-cleavage was 0.968. A52U showed a self-cleavage of 0.99. In the case of A52G, the self-cleavage is reported as 0.995. Variant A52C has a self-cleavage of 0.993. A52U A59C gave a self-cleavage of 0.716. A51G G68U showed a self-cleavage of 1.03. With A51G G68A the self-cleavage was 1.01. For A51G G68C, the self-cleavage was 0.911. G50A G58A showed a self-cleavage of 1.01. Work on G50A G58U yielded a self-cleavage of 1.02. In the case of U49G U62C, the self-cleavage is reported as 0.923. U49G U62A showed a self-cleavage of 0.937. In the case of U49G U62G, the self-cleavage is reported as 0.898. For A51G A60G, the self-cleavage was 0.939. A51G A60U showed a self-cleavage of 0.589. A51C C66U gave a self-cleavage of 0.937. In the case of A51C C66G, the self-cleavage is reported as 0.777. A51C C66A showed a self-cleavage of 0.628. Work on A51C C57A yielded a self-cleavage of 0.294. For A51C C57U, the self-cleavage was 0.338. In the case of G50C G58U, the self-cleavage is reported as 0.995. With G50C G58C the self-cleavage was 0.963. A52G U55G gave a self-cleavage of 0.729. A52G U55A showed a self-cleavage of 0.914. Variant G50U G68A has a self-cleavage of 1.01. For G50U G68C, the self-cleavage was 1.03. A51C G68A showed a self-cleavage of 0.961. With A51C G68C the self-cleavage was 0.996. For A51C G68U, the self-cleavage was 1.01. A51C G65A showed a self-cleavage of 0.807. A51C G65C showed a self-cleavage of 0.64. Work on U49G C63A yielded a self-cleavage of 0.952. U49G C63U gave a self-cleavage of 0.994. Variant U49G C63G has a self-cleavage of 0.907. Work on A51U C63U yielded a self-cleavage of 0.996. A51U C63G showed a self-cleavage of 0.815. A51G G65C showed a self-cleavage of 0.715. For A51G G65U, the self-cleavage was 0.872. Work on A51G G65A yielded a self-cleavage of 0.948. With G50U U53A the self-cleavage was 0.999. A51C U62A showed a self-cleavage of 0.901. With A51C U62C the self-cleavage was 0.76. For U49G U67A, the self-cleavage was 1.04. For U49G U67G, the self-cleavage was 1.05. Work on G50A C54A yielded a self-cleavage of 0.81. In the case of G50C G56A, the self-cleavage is reported as 0.831. With G50C G56U the self-cleavage was 0.842. Variant A52G C63A has a self-cleavage of 0.907. In the case of A52G C63G, the self-cleavage is reported as 0.865. Variant A52G C63U has a self-cleavage of 1. In the case of G50C G68U, the self-cleavage is reported as 0.973. With G50C G68C the self-cleavage was 0.964. In the case of A52G U69C, the self-cleavage is reported as 1.06. In the case of A52G U69G, the self-cleavage is reported as 1.07. A52G U69A gave a self-cleavage of 0.985. A51G C63A gave a self-cleavage of 0.884. With A51G C63G the self-cleavage was 0.772. A51G C63U showed a self-cleavage of 0.96. A51U A59U gave a self-cleavage of 0.762. Work on A51U A59C yielded a self-cleavage of 0.645. G50C U61G showed a self-cleavage of 0.526. With G50C U61C the self-cleavage was 0.762. For G50C U61A, the self-cleavage was 0.823. With A52C G68U the self-cleavage was 0.979. In the case of G50U G58A, the self-cleavage is reported as 0.948. Variant G50U G58U has a self-cleavage of 1.03. Work on A51C U55A yielded a self-cleavage of 0.643. A51U U64G gave a self-cleavage of 0.826. For A51U U64A, the self-cleavage was 0.799. A51U U64C gave a self-cleavage of 0.788. G50U C63A showed a self-cleavage of 0.874. Variant G50U C63U has a self-cleavage of 0.974. Variant A52G U53A has a self-cleavage of 0.917. With G50U U67C the self-cleavage was 1.01. In the case of G50A A51G, the self-cleavage is reported as 0.978. In the case of G50A A51U, the self-cleavage is reported as 0.987. In the case of U49G A52U, the self-cleavage is reported as 0.986. A52C U64C showed a self-cleavage of 0.842. A52C U64G gave a self-cleavage of 0.829. A51G A59U showed a self-cleavage of 0.859. A51U U62G showed a self-cleavage of 0.868. For A51U U62A, the self-cleavage was 0.931. A51U U62C showed a self-cleavage of 0.892. For A52C U69C, the self-cleavage was 1.05. In the case of A52C U69G, the self-cleavage is reported as 1.05. In the case of G50C U62C, the self-cleavage is reported as 0.763. G50C U62A showed a self-cleavage of 0.968. In the case of G50C U62G, the self-cleavage is reported as 0.755. Variant G50A U55A has a self-cleavage of 0.912. Work on A52C G65U yielded a self-cleavage of 0.765. For A52C G65A, the self-cleavage was 0.88. Work on A52C G65C yielded a self-cleavage of 0.582. Work on A51C C54G yielded a self-cleavage of 0.585. For A51C C54U, the self-cleavage was 0.928. Work on A52G C66A yielded a self-cleavage of 0.845. With A52G C66U the self-cleavage was 0.971. U49G G56A gave a self-cleavage of 0.966. For U49G G56C, the self-cleavage was 0.709. Work on U49G G56U yielded a self-cleavage of 0.978. Variant A52C G58U has a self-cleavage of 0.977. Work on G50U U61C yielded a self-cleavage of 0.841. In the case of G50U U61G, the self-cleavage is reported as 0.857. With G50U U61A the self-cleavage was 0.97. A51C G56A showed a self-cleavage of 0.856. Variant A51C G56U has a self-cleavage of 0.8. Work on G50C C66U yielded a self-cleavage of 0.981. With G50C C66G the self-cleavage was 0.853. G50C C66A gave a self-cleavage of 0.728. Work on G50C C54U yielded a self-cleavage of 0.921. For G50C C54G, the self-cleavage was 0.654. With G50A U62C the self-cleavage was 0.949. For G50A U62A, the self-cleavage was 0.986. G50A U62G showed a self-cleavage of 0.959. Work on G50A C57G yielded a self-cleavage of 0.301. A51C U53A gave a self-cleavage of 0.851. A51C U53C gave a self-cleavage of 0.781. In the case of G50A A52C, the self-cleavage is reported as 1.04. G50A A52U showed a self-cleavage of 0.993. With A51U G68C the self-cleavage was 1. With A51U G68A the self-cleavage was 0.999. For A51U G68U, the self-cleavage was 1.01. Work on A51C C63U yielded a self-cleavage of 0.942. A51C C63A gave a self-cleavage of 0.748. With A52G G56U the self-cleavage was 0.97. A52G G56A gave a self-cleavage of 0.983. In the case of A52G G56C, the self-cleavage is reported as 0.819. With A52G U67A the self-cleavage was 1. G50C A59G showed a self-cleavage of 1.03. Variant G50C A59U has a self-cleavage of 0.767.

Reference: the RNAGym collection of RNA variant scans (doi:10.7554/elife.80360)
